This assay has as its target T1, SOX2 peptide on HLA-A*02:01 (human).
T1 peptide: YLPGAEVPEPA
The assay can be described thus: multimer staining. As to the method:
Methods: TCR expression vectors were sequenced after Gibson assembly to confirm successful insertion of the TCR expression cassettes into the pRRLSIN vector. Lentiviral particles were generated using the 293T/17 packaging cell line and the Effectene kit (Qiagen). CD8⁺ T cells were isolated from a healthy donor (18648) using negative magnetic separation (Easy Sep Kit, […] Technologies), stimulated for 4 hours with anti-CD3/CD28 beads (Dynabeads), and transduced with SOX2-TCR-encoding lentiviral particles collected from 293T/17 cells. Transduced CD8⁺ T cells were assessed for tetramer staining on day 5 post transduction. SOX2-TCR⁺ CD8⁺ T cells are sorted for rapid expansion, and assessed for response to different peptide concentrations, and target killing.

B1: SOX2 TCR #05 (TCR, V domains shown)
Valpha: AQKITQTQPGMFVQEKEAVTLDCTYDTSDPSYGLFWYKQPSSGEMIFLIYQGSYDQQNATEGRYSLNFQKARKSANLVISASQLGDSAMYFCAMREGMGFQKLVFGTGTRLLVSP
Vbeta: DVKVTQSSRYLVKRTGEKVFLECVQDMDHENMFWYRQDPGLGLRLIYFSYDVKMKEKGDIPEGYSVSREKKERFSLILESASTNQTSMYLCASRPEMGGRGNQPQHFGDGTRLSIL
On to B1, for which the binding result is given as “recognises”.

B2: SOX2 TCR #10 (TCR, V domains shown)
Valpha: GEDVEQSLFLSVREGDSSVINCTYTDSSSTYLYWYKQEPGAGLQLLTYIFSNMDMKQDQRLTVLLNKKDKHLSLRIADTQTGDSAIYFCAGPLGGSQGNLIFGKGTKLSVKP
Vbeta: EADIYQTPRYLVIGTGKKITLECSQTMGHDKMYWYQQDPGMELHLIHYSYGVNSTEKGDLSSESTVSRIRTEHFPLTLESARPSHTSQYLCASSRGPEAFFGQGTRLTVV
In the case of B2, the binding result is given as “recognises”.

Source of the values: patent US20250018036A1 (published 2025).
